# Experimental data reported in patent publication US20160145598.
# Where two headings read alike, the source gives them in different places.
# How the values were obtained:
# thrombin [1] = system: thrombin
# thrombin [2] = molecular target: thrombin; remark: listed apart in the source
Molecule,appearance of FXa after incubation with thrombin (Pefachrome FXa8595 hydrolysis at 405 nm) (thrombin [1]),appearance of FXa after incubation with thrombin (Pefachrome FXa8595 hydrolysis at 405 nm) (thrombin [2])
"FX-WT (human factor X from an optimized nucleotide sequence, with C-terminal HPC4 tag)",the plasma and WT FXs being negative since they do not have a thrombin recognition site,–
plasma factor X (protein) chain 1: ANSFLEEMKKGHLERECMEETCSYEEAREVFEDSDKTNEFWNKYKDGDQCETSPCQNQGKCKDGLGEYTCTCLEGFEGKNCELFTRKLCSLDNGDCDQFCHEEQNSVVCSCARGYTLADNGKACIPTGPYPCGKQTLER chain 2: SVAQATSSSGEAPDSITWKPYDAADLDPTENPFDLLDFNQTQPERGDNNLTRIVGGQECKDGECPWQALLINEENEGFCGGTILSEFYILTAAHCLYQAKRFKVRVGDRNTEQEEGGEAVHEVEVVIKHNRFTKETYDFDIAVLRLKTPITFRMNVAPACLPERDWAESTLMTQKTGIVSGFGRTHEKGRQSTRLKMLEVPYVDRNSCKLSSSFIITQNMFCAGYDTKQEDACQGDSGGPHVTRFKDTYFVTGIVSWGEGCARKGKYGIYTKVTAFLKWIDRSMKTRGLPKAKSHAPEVITSSPLK,–,the plasma and WT FXs being negative since they do not have a thrombin recognition site
